From patent US5733879A, “Peptides and proteins, process for their preparation and their use as cholesterol acceptors” (N.V. Innogenetics, S.A., priority 1992, dated 1998)
“Also recorded” adds a separate entry of the source. Where no end group is shown, it is not given here.

Columns and labels:
[1] = Percentage of alpha-helix structure by circular dichroism; type: physicochemical; conditions: for percentage of alpha-helix structure, peptide, CD: free peptide; for percentage of alpha-helix structure, DMPC/peptide, CD: phospholipid-peptide (DMPC) complex
Protocol: (§1) Table 1: corresponds to the percentage of alpha-helix structure in the free peptide and in the phospholipid-peptide (DMPC) complexes as determined by infrared spectroscopy (IR) and circular dichroism (CD).
Circular dichroism spectra of the peptides and their complexes with lipids were measured on a Jasco 600 spectropolarimeter at 23° C. (Brasscur et at., 1991). Measurements were carried out at a protein concentration of 0.1 mg/ml in a 0.01M sodium phosphate buffer pH 7.4. Nine spectra were collected and averaged for each sample. The secondary structure was estimated according to the generalized inverse method of Compton and Johnson (Compton et at., 1986).

[2] = target: T1, semi-purified LCAT enzyme (Homo sapiens, UniProt P04180); test: LCAT activation properties of the phospholipid-peptide complexes (HPLC of cholesteryl esters); type: biochemical; conditions: for Vmax compared with other complexes / apo AI-phospholipid complexes: Lineweaver-Burk plots; for Vmax (LCAT activation): PLPC/cholesterol/peptide discoidal complex as substrate, apparent kinetic constant, 37° C.; for kinetics of cholesterol esterification by LCAT (time course): discoidal complexes with PLPC and cholesterol, 0-24 h; for Vmax/Km A % of apo A1 (LCAT activation): relative to apo AI-phospholipid complex = 100
T1 construct: corresponds to the concentration relative to that in plasma by a factor of 5100, with the major contaminant being albumin; from tissue
T1 sequence (P04180 25-440): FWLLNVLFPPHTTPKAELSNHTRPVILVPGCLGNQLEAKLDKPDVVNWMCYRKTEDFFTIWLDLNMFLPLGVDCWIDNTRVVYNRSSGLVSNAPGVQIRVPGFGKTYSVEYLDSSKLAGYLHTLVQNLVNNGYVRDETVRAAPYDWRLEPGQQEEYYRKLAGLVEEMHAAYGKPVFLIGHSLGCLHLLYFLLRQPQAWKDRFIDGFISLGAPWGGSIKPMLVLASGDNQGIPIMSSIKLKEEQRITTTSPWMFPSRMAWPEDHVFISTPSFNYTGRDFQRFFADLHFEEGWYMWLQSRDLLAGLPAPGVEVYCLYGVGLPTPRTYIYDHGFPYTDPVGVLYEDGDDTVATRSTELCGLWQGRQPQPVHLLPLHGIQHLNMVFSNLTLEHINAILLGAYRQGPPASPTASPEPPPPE
Protocol: The activity of the LCAT enzyme with the various peptide-lipid complexes as substrates was determined by measuring the mount of cholesteryl esters generated during the enzymatic reaction by HPLC (Vercaemst et al., 1989).
The assay mixture consisted of variable mounts of complexes at cholesterol concentrations varying between 5 and 100 μM, 5 mg defatted bovine serum albumin (Sigma), 6 mM beta-mercaptoethanol in a reaction volume of 0.2 ml. After a preincubation of 20 min at 37° C., the enzymatic reaction was initiated by adding 3-6 μl of the semi-purified LCAT enzyme. The reaction was followed at 37° C. and was stopped by extraction of the incubation mixture with hexane-isopropanol 3:2, v/v. The solvent mixture contained either cholesteryl heptadecanoate (Sigma) or beta-sitosterol (Sigma) as internal standards for respectively cholesteryl esters and unesterified cholesterol quantification.
The unesterified cholesterol and the cholesteryl esters are identified and quantified by isocratic HPLC on a reversed-phase Zorbax ODS column, eluted with acetonitrile-isopropanol at a ratio of 90:10 v/v for unesterified cholesterol and of 50:50 v/v for cholesteryl esters. Detection was performed by measuring the UV absorbance at 205-210 nm. At a column temperature of 50° C. and with a flow-rate of 1.2 ml/min, the separation is completed within 25 min (Vercaemst et al., 1989). The sensitivity of this HPLC technique is similar to that of the conventional radioactive assay for polyunsaturated lecithin substrates (50 ng), and is about twice as low for saturated lecithins (80 ng).
The time course of cholesterol esterification by the LCAT enzyme with discoidal substrates consisting of PLPC, cholesterol, and the synthetic peptides, was followed between 0 and 24 h (Jonas, 1987). For the determination of the kinetic parameters, the initial velocities were determined in the linear portion of the curves, i.e. between 0-30% cholesteryl esters formation. The sample concentrations were in the range of 5×10^-7 to 5×10^-6 M with a constant enzyme volume of 5 μl, so that a linear production of cholesteryl esters formation was measured within 10 min at 37° C.
The initial kinetics (Vo) as a function of the apoprotein or peptide (C) concentrations were analyzed using a Lineweaver-Burk plot of 1/Vo versus 1/C. Linear regression analysis yielded the apparent kinetic parameters: Vmax, Km and Vmax/Km for each apoprotein or peptide-lipid complex. All kinetic experiments were performed at least three times and Vmax and Km values were expressed as mean ±error on the intercept and slope of the regression line.
The kinetics of the reaction of the semi-purified LCAT enzyme with discoidal complexes generated between the peptides, PLPC and cholesterol as substrate were followed between 0 and 24 h, and compared with those of the apo AI/PLPC/cholesterol complexes. The expression "semi-purified" corresponds to the concentration relative to that in plasma by a factor of 5100, with the major contaminant being albumin. The time course of the reaction, expressed as the percentage of esterified cholesterol as compared with the original substrate is shown on FIGS. 5a, 5b and 6 and in Table 2. […] After 24 h, more than 90% of the initial cholesterol present in all substrates was converted into cholesteryl esters (FIG. 5a).

[3] = Percentage of alpha-helix structure by ATR infrared spectroscopy; type: physicochemical; conditions: for percentage of alpha-helix structure, peptide, IR: free peptide; for percentage of alpha-helix structure, DMPC/peptide, IR: phospholipid-peptide (DMPC) complex
Description: as §1
(§2) Attenuated Total Reflection (ATR) infrared spectroscopy was used for the determination of the relative orientation of the apolipoprotein alpha-helical segments and of the phospholipid acyl chains as previously described for apo AI and apo AI-phospholipid complexes and for LDL (Vanloo et at., 1991). For these measurements, a 70 μL solution of 20 μg isolated complex in a 0.005M Tris-HCl buffer pH 8.4, was spread on a ATR Germanium crystal plate. Deuteration of the sample was performed by flushing N2, saturated with D2 O, in a sealed universal Perkin-Elmer sample holder, at room temperature for 3 hours, in order to avoid overlapping of the absorption bands for random and alpha-helical structures.
(§3) Spectra were recorded on a Perkin Elmer 1720X infrared spectrophotometer, using polarized incident light with a perpendicular (90°) and parallel (0°) orientation. A dichroic spectrum was obtained by substracting the spectrum recorded with polarized light at 0° from that at 90°. A positive deviation on the dichroic spectrum indicates a dipole preferentially oriented close to a normal to the plane, while a larger absorbance at 0° is indicative of a dipole oriented close to the Ge crystal plane. The angle between a normal to the Ge crystal and the dipole is obtained from the calculation of the dichroic ratio Ratr =A(90°)/A(0°), representing the ratio of the absorbances on the spectra recorded with polarized light at 90° and 0° . For each experiment, up to 15 scans were stored and averaged.

[4] = Orientation of helices and acyl chains by polarized ATR infrared spectroscopy; type: physicochemical; conditions: peptide-DMPC complexes
Protocol: as §2, §3
In order to determine the orientation of the alpha-helices with respect to the DMPC bilayer, ATR infrared spectra of DMPC and of the isolated peptide-DMPC complexes were recorded at two orthogonal linear polarizations of the incident light. […] This value is close to that measured for the apo AI-DMPC complex (Vanloo et al.,1991), and higher than that for pure DMPC. For the M1, M2, M3 and M4 peptide-DMPC complexes, the corresponding angles between the peptide and an axis perpendicular to the Ge plane are respectively 25°, 25°, 34° and 31°.

Vmax compared with other complexes / apo AI-phospholipid complexes [2]	Vmax (LCAT activation) [2] [nmol CE/h]	kinetics of cholesterol esterification by LCAT (time course) [2]	Vmax/Km A % of apo A1 (LCAT activation) [2] [%]	time at which plateau of esterification was reached ([2]; saturable kinetics) [h]	Substance	percentage of alpha-helix structure, peptide, CD [1] [%]	percentage of alpha-helix structure, DMPC/peptide, CD [1] [%]	percentage of alpha-helix structure, peptide, IR [3] [%]	percentage of alpha-helix structure, DMPC/peptide, IR [3] [%]	angle between the peptide and an axis perpendicular to the Ge plane [4] [°]
two to three times lower	1.53	fastest kinetics			EWLEAFYKKVLEKLKELF [M4]	50	65	35	58	31
considerably lower	0.33	low rate of cholesterol esterification	10.7		EWLKAEYEKVEEKLKELF [M3]			43	61	34
	0.33	low rate of cholesterol esterification	3.3		EWLKAEYEKVLEKLKELF [M2]	30	46	36	50	25

Substance	Vmax compared with other complexes / apo AI-phospholipid complexes [2]	Vmax (LCAT activation) [2] [nmol CE/h]	kinetics of cholesterol esterification by LCAT (time course) [2]	Vmax/Km A % of apo A1 (LCAT activation) [2] [%]	time at which plateau of esterification was reached ([2]; saturable kinetics) [h]	percentage of alpha-helix structure, peptide, CD [1] [%]	percentage of alpha-helix structure, DMPC/peptide, CD [1] [%]	percentage of alpha-helix structure, peptide, IR [3] [%]	percentage of alpha-helix structure, DMPC/peptide, IR [3] [%]	angle between the peptide and an axis perpendicular to the Ge plane [4] [°]
EWLKAFYKKVLEKLKELF [M1]	two to three times lower; also recorded: considerably lower	2.41	fastest kinetics	15.4		20	46	29	50	25
apo AI: native plasma apo AI purified from human plasma; major apoprotein constituent of HDL		5.89	fastest kinetics	100.0	2 to 4	29	47	39	49	
